Values quoted from earlier work, collected in paper PMC8036930.
pKd: −log10 of the molar value.

Target: albumin (Rattus norvegicus) (UniProt P02770)
Chain of UniProt P02770 (P02770 25-608): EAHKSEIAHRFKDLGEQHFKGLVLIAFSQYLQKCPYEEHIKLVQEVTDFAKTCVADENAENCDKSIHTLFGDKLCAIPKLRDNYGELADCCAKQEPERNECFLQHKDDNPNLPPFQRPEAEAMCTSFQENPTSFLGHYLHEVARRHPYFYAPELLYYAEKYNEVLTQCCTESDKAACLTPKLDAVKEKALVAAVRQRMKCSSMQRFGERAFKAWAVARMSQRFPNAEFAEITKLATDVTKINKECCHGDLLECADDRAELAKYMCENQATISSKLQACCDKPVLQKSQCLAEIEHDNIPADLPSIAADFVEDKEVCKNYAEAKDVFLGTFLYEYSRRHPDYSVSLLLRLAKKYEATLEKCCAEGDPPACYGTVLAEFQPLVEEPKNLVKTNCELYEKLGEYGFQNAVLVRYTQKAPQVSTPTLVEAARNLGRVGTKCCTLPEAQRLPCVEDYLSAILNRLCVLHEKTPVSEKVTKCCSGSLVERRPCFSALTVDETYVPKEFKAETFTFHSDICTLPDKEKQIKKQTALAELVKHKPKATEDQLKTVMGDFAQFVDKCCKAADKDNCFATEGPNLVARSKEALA

cubilin (from UniProt O70244)
pKd: 6.20
